Results on two proteins are retold here after paper PMC5037138, “A Novel Class of Plant Type III Polyketide Synthase Involved in Orsellinic Acid Biosynthesis from Rhododendron dauricum” (Frontiers in Plant Science, 2016).

Common to all, as to assay: HPLC product quantification, Hanes-Woolf
Format in all cases: biochemical, Rhododendron dauricum

Substrate in data set [1]: CC(C)(COP(=O)(O)OP(=O)(O)OC[C@H]1O[C@@H](n2cnc3c(N)ncnc32)[C@H](O)[C@@H]1OP(=O)(O)O)[C@@H](O)C(=O)NCCC(=O)NCCSC(=O)/C=C/c1ccc(O)cc1
The settings on record: naringenin formation, 200 uM malonyl-CoA, pH 7.0, 30 C.

Substrate in data set [2]: CC(=O)SCCNC(=O)CCNC(=O)[C@H](O)C(C)(C)COP(=O)(O)OP(=O)(O)OC[C@H]1O[C@@H](n2cnc3c(N)ncnc32)[C@H](O)[C@@H]1OP(=O)(O)O
The settings on record: orcinol formation (major product), 200 uM malonyl-CoA, 100 mM potassium phosphate pH 7.0, 30 C, no OAC. The text has this:
(§1) HPLC product quantification, Hanes-Woolf on ORS (orcinol synthase)

Substrate in data set [3]: CCCC(=O)SCCNC(=O)CCNC(=O)[C@H](O)C(C)(C)COP(=O)(O)OP(=O)(O)OC[C@H]1O[C@@H](n2cnc3c(N)ncnc32)[C@H](O)[C@@H]1OP(=O)(O)O
The settings on record: 4-hydroxy-6-propyl-2-pyrone formation, 200 uM malonyl-CoA, pH 7.0, 30 C.
Text: as §1

Substrate in data set [4]: CCCCCC(=O)SCCNC(=O)CCNC(=O)[C@H](O)C(C)(C)COP(=O)(O)OP(=O)(O)OC[C@H]1O[C@@H](n2cnc3c(N)ncnc32)[C@H](O)[C@@H]1OP(=O)(O)O
The settings on record: 4-hydroxy-6-pentyl-2-pyrone formation, 200 uM malonyl-CoA, pH 7.0, 30 C.
Text: as §1

B1: CHS (R. dauricum chalcone synthase) (Rhododendron dauricum) (protein)
chain: MVTVEDVRKAQRAEGPATVMAIGTATPPNCVDQSTYPDFYFRITNSEHKAELKEKFQRMCDKSMIKKRYMYLTEEILKENPSVCEYMAPSLDARQDMVVVEVPKLGKEAATKAIKEWGQPKSKITHLVFCTTSGVDMPGADYQLTKLLGLRPSVKRLMMYQQGCFAGGTVLRLAKDLAENNKGARVLVVCSEITAVTFRGPSDTHLDSLVGQALFGDGAAAIIVGADPVPEVEKPLFELVSAAQTILPDSDGAIDGHLREVGLTFHLLKDVPGLISKNIEKALTEAFQPLGISDWNSIFWIAHPGGPAILDQVELKLSLKPEKLRATRHVLSEYGNMSSACVLFILDEMRRKSAEEGLKTTGEGLEWGVLFGFGPGLTVETVVLHSLCT
notes: full length, 389 residues (42,599 Da), N-terminal His6 tag kept (pQE80L), E. coli M15; ~45 kDa subunit; homodimer ~94 kDa
Broadly, the Km is the concentration of substrate that gives half-maximal velocity. Usually kcat stands for the number of substrate molecules converted per active site and unit of time at saturation. Regarding B1, in data set [1], the Km is 8.15 µM and the kcat turned out to be 0.0089 s⁻¹.

B2: ORS (orcinol synthase) (Rhododendron dauricum) (protein)
chain: MALVNHRENVKGRAQILAIGTANPKNCFRQVDYPDYYFRVTKSDHLIDLKAKFKRMCEKSMIEKRYMHVNEEILEQNPSMNHGGEKMVSSLDVRLDMEIMEIPKLAAEAATKAMDEWGQPKSRITHLVFHSTLGTVMPGVDYELIKLLGLNPSVKRFMLYHLGCYGGGTVLRLAKDLAENNPGSRVLVLCCEMMPSGFHGPPSLQHAHLDILTGHAIFGDGAGAVIVGCVDPSGGTNGVVERGVRRYEQPLFEIHSAYQTVLPDSKDAVGGRLREAGLIYYLSKRLSNDVSGKIDECCLAEAFSAAIKDNFEDWNSLFWIVHPAGRPILDKLDAKLGLNKEKLRASRNVLRDYGNMWSSSVLFVLDEMRKGSIAQRKTTTGEGFEWGVLLGFGPGVTVETVVLRSVPTAKLK
notes: full length, 412 residues (45,707 Da), N-terminal His6 tag kept (pQE80L), E. coli M15; ~48 kDa subunit; homodimer ~101 kDa
On to B2, for which the Km in data set [2] was determined as 9.98 µM; in data set [3], 17.1 µM; in data set [4], 26.4 µM. Besides, the kcat is 0.0243 s⁻¹ in data set [2], 0.00675 s⁻¹ in data set [3] and 0.00482 s⁻¹ in data set [4].
